Blank lines part the entries; values can stand above or below the binder they belong to.
How the values were obtained:
[1] = biological target: T1, full-length human CD137 construct 1030 (human, UniProt Q07011 24-255); assay: flow cytometry, 293-F cells with full-length CD137 (reference of the normalization)
T1 construct: whole, on cells; on transfected FreeStyle 293-F cells; also called Full-length CD137
Procedure: (§1) The ability of each antibody to bind to a panel of human/mouse CD137 chimeras expressed on the surface of transfected cells was analyzed by flow cytometry.
(§2) The chimeras were designed by exchanging domains or modules of the human CD137 with the corresponding mouse domain (FIG. 7). Genes of CD137 human/mouse chimeras were synthesized (GenScript) and constructs cloned into pcDNA3.1 vector (Invitrogen) and transiently transfected into FreeStyle 293-F cells (Invitrogen). The transfected cells were incubated with CD137 antibodies and control antibodies, followed by incubation with anti-human IgG-PE (Jackson Immunoresearch) for detection and analyzed with FACS Verse (BD Biosciences). Binding to the different chimeric constructs was calculated as relative MFI compared to the binding of the isotype control, followed by normalization to the full-length human CD137 construct to minimize the effect of affinity differences between individual antibodies.

[2] = biological target: T2, recombinant human CD137-Fc (R&D #838-4B) (human, UniProt Q07011 24-186); assay: ELISA, coated CD137 (R&D #838-4B)
T2 construct: bought; also called CD137 (R&D #838-4B); not shown: Fc part, bought reagent, not described
T2 sequence (Q07011 24-186 limits assumed): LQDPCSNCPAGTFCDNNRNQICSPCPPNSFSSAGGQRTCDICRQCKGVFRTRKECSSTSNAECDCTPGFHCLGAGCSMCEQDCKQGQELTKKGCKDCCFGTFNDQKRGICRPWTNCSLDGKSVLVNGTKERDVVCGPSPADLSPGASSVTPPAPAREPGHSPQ

[3] = biological target: T3, CD40-Fc (Ancell #504-820) (human, UniProt P25942 21-193); assay: ELISA, coated CD40-Fc; coated CD40-Fc
T3 construct: not shown: Fc part, bought reagent, not described
T3 sequence (P25942 21-193 limits assumed): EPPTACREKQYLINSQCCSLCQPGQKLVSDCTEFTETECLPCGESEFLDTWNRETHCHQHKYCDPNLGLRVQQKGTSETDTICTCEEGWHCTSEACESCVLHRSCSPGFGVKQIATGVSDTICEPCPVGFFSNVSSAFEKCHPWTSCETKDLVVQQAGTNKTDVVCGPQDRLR
Procedure: (§3) ELISA plates (Greiner #655074) were coated with 50 μl/well of recombinant human OX40 (R&D #1493-CD), CD40-Fc (Ancell #504-820) or CD137 (R&D #838-4B) diluted to a final concentration of 0.5 μg/ml in PBS for 1h at 37° C. or overnight at 4° C. Plates were washed with PBS+0.05% TWEEN20 (PBST), followed by block with PBST+1% bovine serum albumin (BSA). Antibody samples were prepared as serial 1/10 dilutions from 10-0.01 μg/ml in PBST+1% BSA and incubated for 1 h in room temperature, followed by detection using a horse radish peroxidase-conjugated anti-human kappa light chain antibody (AbD Serotec #STAR127P) and developed using SuperSignal ELISA Pico Chemiluminescent substrate (Pierce ThermoScientific #37069).

[4] = biological target: T2, recombinant human CD137-Fc (R&D #838-4B); assay: ELISA, coated CD137-Fc
Procedure: (§4) Binding of CD137 antibodies to recombinant human CD137 was determined by sandwich ELISA. Briefly, ELISA plates (Greiner #655074) coated with recombinant human CD137-Fc (R&D #838-4B) were incubated with serial dilutions of the various CD137 antibodies to be investigated. CD137 antibodies were detected using HRP-conjugated goat-anti-human kappa light chain (AbD Serotec #STAR127P) and developed with SuperSignal ELISA Pico Chemiluminescent substrate (Pierce #37069). EC50 values of the various antibodies were determined in 2-6 separate experiments.

[5] = biological target: Human CD137 (R&D systems) (human, UniProt Q07011 24-186, limits assumed); assay: SPR Biacore, amine-coupled CD137, mAb injected (bivalent)
Sequence of Human CD137 (R&D systems) (Q07011 24-186 limits assumed): as the sequence (Q07011 24-186 limits assumed) above
Procedure: Human CD137 (R&D systems) was immobilized to the Biacore™ sensor chip, CMS, using conventional amine coupling. The tested antibody and control (serially diluted 1/2 10-0.63 nM) were analyzed for binding in HBS-P (GE, #BR-1003-68) at a flow rate of […]. The association was followed for 5 minutes and the dissociation for 15 minutes. Regeneration was performed twice using 10 mM Glycine pH 1.7 for 30 seconds. The kinetic parameters and the affinity constants were calculated using 1:1 Langmuir model.

[6] = biological target: T4, cynomolgus CD137 on transfected CHO cells (cynomolgus; human); assay: flow cytometry, CHO-cyCD137; 95% CI of EC50
T4 construct: extracellular domain;domain: transmembrane and intracellular part; also called CHO-cyCD137; CHOcynoCD137
T4 sequence (P25942 other isoform, or with tags, fused parts or gaps): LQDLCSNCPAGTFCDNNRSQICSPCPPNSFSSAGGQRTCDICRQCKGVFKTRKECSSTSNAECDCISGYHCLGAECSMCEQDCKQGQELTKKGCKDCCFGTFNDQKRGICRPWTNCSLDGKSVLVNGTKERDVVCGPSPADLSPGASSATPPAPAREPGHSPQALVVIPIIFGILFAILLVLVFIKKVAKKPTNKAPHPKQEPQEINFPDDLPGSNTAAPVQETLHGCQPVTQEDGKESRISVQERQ
Procedure: (§5) Binding and EC50 was determined using flow cytometric analysis of CHO cells transfected with human CD137, cynomolgus CD137 or empty vector. The extracellular part of human or cynomolgus CD137 was fused to the transmembrane and intracellular part of human CD40 and cloned into pcDNA3.1. The vector was subsequently stably transfected into CHO cells. […] CD137-transfected and empty vector-transfected cells were incubated with CD137 antibodies for at least 1h at 4° C. to saturate the binding. In order to minimize antibody internalization, 0.05% sodium azide was used in the incubation buffer and all work was performed on ice. […] Directly after staining the cells were fixed with a paraformaldehyde solution (10x concentrate BD CellFIX, BD biosciences #340181). Cells were analyzed by flow cytometry using FACSVerse (BD Biosciences). The median fluorescence intensity (MFI) for each sample was determined and the dose response data was analysed using Graph Pad Prism.
(§6) MFI data was normalized for each antibody, where 0% is defined as the lowest value and 100% is the highest value in the dose titration for each antibody.

[7] = biological target: T4, cynomolgus CD137 on transfected CHO …; assay: flow cytometry, CD137-transfected CHO cells
Procedure: as §5, §6

[8] = biological target: T3, CD40-Fc (Ancell #504-820); assay: ELISA, coated CD40-Fc
Procedure: as §3

[9] = biological target: T5, human CD137 on transfected CHO cells (human, UniProt Q07011 24-186; P25942 194-277, limits assumed); assay: flow cytometry, CHO-huCD137; 95% CI of EC50
T5 construct: extracellular domain;domain: transmembrane and intracellular part; also called CHO-huCD137; CHOhCD137
T5 sequence (Q07011 other isoform, or with tags, fused parts or gaps limits assumed): as the sequence (P25942 other isoform, or with tags, fused parts or gaps) above, with L4P, S19N, K50R, I66T, S67P, Y69F, E75G, A149V counted along it
Procedure: as §5, §6

[10] = biological target: T2, recombinant human CD137-Fc (R&D #838-4B); assay: ELISA, coated CD137-Fc; remark: listed apart in the source
Procedure: as §4

[11] = biological target: T6, human/mouse CD137 chimera 1554; assay: flow cytometry, 293-F cells with CD137 chimera
T6 construct: on transfected FreeStyle 293-F cells
Procedure: as §1, §2

[12] = biological target: T7, human/mouse CD137 chimera 1552; assay: flow cytometry, 293-F cells with CD137 chimera
T7 construct: on transfected FreeStyle 293-F cells
Procedure: as §1, §2

[13] = biological target: T8, human/mouse CD137 chimera 1555; assay: flow cytometry, 293-F cells with CD137 chimera
T8 construct: on transfected FreeStyle 293-F cells
Procedure: as §1, §2

[14] = biological target: T9, human/mouse CD137 chimera 1551; assay: flow cytometry, 293-F cells with CD137 chimera
T9 construct: on transfected FreeStyle 293-F cells
Procedure: as §1, §2

[15] = biological target: T10, human/mouse CD137 chimera 1553; assay: flow cytometry, 293-F cells with CD137 chimera
T10 construct: on transfected FreeStyle 293-F cells
Procedure: as §1, §2

[16] = biological target: T11, human/mouse CD137 chimera 1550; assay: flow cytometry, 293-F cells with CD137 chimera
T11 construct: on transfected FreeStyle 293-F cells
Procedure: as §1, §2

[17] = biological target: T12, biotinylated CD137 (UniProt Q07011 24-186, limits assumed, biotinylated); assay: SPR MASS-1, biotinylated antigen on streptavidin chip, parental mAb (same value as printed at r8c7, repeated in the row of 1618-1210)
T12 sequence (Q07011 24-186 limits assumed): as the sequence (Q07011 24-186 limits assumed) above

[18] = biological target: T12, biotinylated CD137; assay: SPR MASS-1, biotinylated antigen on streptavidin chip, parental mAb
[19] = biological target: T13, recombinant human OX40 (R&D #1493-CD) (human, UniProt P43489 29-216, limits assumed); assay: ELISA, coated OX40
T13 sequence (looked up): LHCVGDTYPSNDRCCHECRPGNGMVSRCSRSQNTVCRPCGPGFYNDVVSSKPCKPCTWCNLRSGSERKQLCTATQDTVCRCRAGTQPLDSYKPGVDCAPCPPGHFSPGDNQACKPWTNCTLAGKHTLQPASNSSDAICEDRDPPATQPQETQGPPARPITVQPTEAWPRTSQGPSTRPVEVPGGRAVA
Procedure: as §3

[20] = biological target: T6, human/mouse CD137 chimera 1554; assay: flow cytometry, 293-F cells with CD137 chimera; Exp 1
Procedure: as §1, §2

[21] = biological target: T7, human/mouse CD137 chimera 1552; assay: as above
Procedure: as §1, §2

[22] = biological target: T8, human/mouse CD137 chimera 1555; assay: as above
Procedure: as §1, §2

[23] = biological target: T9, human/mouse CD137 chimera 1551; assay: as above
Procedure: as §1, §2

[24] = biological target: T10, human/mouse CD137 chimera 1553; assay: as above
Procedure: as §1, §2

[25] = biological target: T11, human/mouse CD137 chimera 1550; assay: as above
Procedure: as §1, §2

[26] = biological target: T6, human/mouse CD137 chimera 1554; assay: flow cytometry, 293-F cells with CD137 chimera; Exp 2
Procedure: as §1, §2

[27] = biological target: T7, human/mouse CD137 chimera 1552; assay: as above
Procedure: as §1, §2

[28] = biological target: T8, human/mouse CD137 chimera 1555; assay: as above
Procedure: as §1, §2

[29] = biological target: T9, human/mouse CD137 chimera 1551; assay: as above
Procedure: as §1, §2

[30] = biological target: T10, human/mouse CD137 chimera 1553; assay: as above
Procedure: as §1, §2

[31] = biological target: T11, human/mouse CD137 chimera 1550; assay: as above
Procedure: as §1, §2

T1 sequence (Q07011 24-255): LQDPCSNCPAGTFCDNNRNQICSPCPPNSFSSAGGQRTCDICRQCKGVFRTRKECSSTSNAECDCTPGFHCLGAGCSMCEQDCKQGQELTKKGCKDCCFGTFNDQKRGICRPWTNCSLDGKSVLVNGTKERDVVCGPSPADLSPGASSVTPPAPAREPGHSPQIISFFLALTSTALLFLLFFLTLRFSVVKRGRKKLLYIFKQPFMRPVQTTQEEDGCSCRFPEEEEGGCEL

MFI/isotype control normalized to full-length human CD137 [1]: 1
EC50 [2]: 0.4 nM
EC50 [3]: > 40 nM
EC50 [4]: 0.41 nM
Kd [5]: 0.976 nM
koff [5]: 0.00066 s⁻¹
kon [5]: 676000 M⁻¹ s⁻¹
EC50 [6]: 0.11 to 0.17 µg/mL
Ratio, cyno:human [7]: 0.67
EC50 [8]: > 10 µg/mL
EC50 [9]: 0.16 to 0.27 µg/mL
EC50 [10]: ~0.06 µg/mL
MFI/isotype control normalized to full-length human CD137 [11]: 0.51
MFI/isotype control normalized to full-length human CD137 [12]: 0.06
MFI/isotype control normalized to full-length human CD137 [13]: 0.26
MFI/isotype control normalized to full-length human CD137 [14]: 0.05
MFI/isotype control normalized to full-length human CD137 [15]: 0.65
MFI/isotype control normalized to full-length human CD137 [16]: 0.05
B1: 1202/1203 (antibody, V domains shown)
VH: EVQLLESGGGLVQPGGSLRLSCAASGFTFYGSSMSWVRQAPGKGLEWVSSIYYGSSGTYYADSVKGRFTISRDNSKNTLYLQMNSLRAEDTAVYYCARSYYGYFDYWGQGTLVTVSS
VL: DIQMTQSPSSLSASVGDRVTITCRASQSISSYLNWYQQKPGKAPKLLIYAASSLQSGVPSRFSGSGSGTDFTLTISSLQPEDFATYYCQQYYTVVPFTFGQGTKLEIK

MFI/isotype control normalized to full-length human CD137 [1]: 1
EC50 [4]: 0.35 nM
Kd [5]: 0.107 nM
koff [5]: 0.00011 s⁻¹
kon [5]: 1.02e+06 M⁻¹ s⁻¹
EC50 [6]: 0.086 to 0.15 µg/mL
Ratio, cyno:human [7]: 0.77
Kd [17]: 0.156 nM
Kd [18]: 0.156 nM
binding result [8]: no binding (tested: 10 µg/ml)
binding result [19]: no binding (tested: 10 µg/ml)
EC50 [9]: 0.11 to 0.19 µg/mL
MFI/isotype control normalized to full-length human CD137 [11]: 1.01
MFI/isotype control normalized to full-length human CD137 [12]: 1.2
MFI/isotype control normalized to full-length human CD137 [13]: 0.12
MFI/isotype control normalized to full-length human CD137 [14]: 0.67
MFI/isotype control normalized to full-length human CD137 [15]: 1.24
MFI/isotype control normalized to full-length human CD137 [16]: 0.11
B2: 1618/1619 (antibody, V domains shown)
VH: EVQLLESGGGLVQPGGSLRLSCAASGFTFSYGSMYWVRQAPGKGLEWVSSISSGSGSTYYADSVKGRFTISRDNSKNTLYLQMNSLRAEDTAVYYCARSSYYGSYYSIDYWGQGTLVTVSS
VL: DIQMTQSPSSLSASVGDRVTITCRASQSISSYLNWYQQKPGKAPKLLIYAASSLQSGVPSRFSGSGSGTDFTLTISSLQPEDFATYYCQQYYDNLPTFGQGTKLEIK

MFI/isotype control normalized to full-length human CD137 [20]: 0.26
MFI/isotype control normalized to full-length human CD137 [21]: 0.32
MFI/isotype control normalized to full-length human CD137 [22]: 0.3
MFI/isotype control normalized to full-length human CD137 [23]: 0.07
MFI/isotype control normalized to full-length human CD137 [24]: 0.41
MFI/isotype control normalized to full-length human CD137 [25]: 0.06
MFI/isotype control normalized to full-length human CD137 [26]: 0.15
MFI/isotype control normalized to full-length human CD137 [27]: 0.13
MFI/isotype control normalized to full-length human CD137 [28]: 0.45
MFI/isotype control normalized to full-length human CD137 [29]: 0.15
MFI/isotype control normalized to full-length human CD137 [30]: 0.15
MFI/isotype control normalized to full-length human CD137 [31]: 0.14
binding result [8]: no binding (tested: 10 µg/ml)
binding result [19]: no binding (tested: 10 µg/ml)
B3: 1214/1215 (antibody, V domains shown)
VH: EVQLLESGGGLVQPGGSLRLSCAASGFTFSSYAMSWVRQAPGKGLEWVSSIGSGGGYTGYADSVKGRFTISRDNSKNTLYLQMNSLRAEDTAVYYCARVGHPFDYWGQGTLVTVSS
VL: DIQMTQSPSSLSASVGDRVTITCRASQSISSYLNWYQQKPGKAPKLLIYAASSLQSGVPSRFSGSGSGTDFTLTISSLQPEDFATYYCQQDAYPHTFGQGTKLEIK

— patent US20190169308A1 (ALLIGATOR BIOSCIENCE, published 2019)
